Read-outs that look alike come from different tables or passages of the source.
T1: cynomolgus monkey OX40 (cynomolgus monkey)
T1 chain: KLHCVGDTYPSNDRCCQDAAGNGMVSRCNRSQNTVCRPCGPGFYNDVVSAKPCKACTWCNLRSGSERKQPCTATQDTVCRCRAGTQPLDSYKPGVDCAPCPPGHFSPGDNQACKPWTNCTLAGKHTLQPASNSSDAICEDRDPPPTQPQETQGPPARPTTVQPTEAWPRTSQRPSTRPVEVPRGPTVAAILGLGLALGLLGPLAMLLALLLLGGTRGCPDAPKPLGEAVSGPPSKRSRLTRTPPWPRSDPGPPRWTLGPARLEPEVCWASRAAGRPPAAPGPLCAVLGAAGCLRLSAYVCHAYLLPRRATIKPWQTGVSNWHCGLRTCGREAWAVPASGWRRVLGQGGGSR

T2: human OX40 (human, UniProt P43489 29-277)
T2 chain: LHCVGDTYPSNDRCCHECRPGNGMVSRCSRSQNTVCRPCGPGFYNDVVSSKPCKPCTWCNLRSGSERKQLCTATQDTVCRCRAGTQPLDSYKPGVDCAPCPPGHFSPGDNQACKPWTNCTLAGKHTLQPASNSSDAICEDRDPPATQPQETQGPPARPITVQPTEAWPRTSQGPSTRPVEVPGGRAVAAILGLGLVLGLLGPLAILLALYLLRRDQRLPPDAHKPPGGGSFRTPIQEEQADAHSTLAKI


Tests used:
Assay in all cases: flow cytometry
cynomolgus monkey OX40 = target: T1, cynomolgus monkey OX40
human OX40 [1] = target: T2, human OX40
human OX40 [2] = target: T2, human OX40
human OX40 [3] = target: T2, human OX40

Row | Binder | EC50 (cynomolgus monkey OX40) [nM] | EC50 (human OX40 [1]) [nM] | EC50 (human OX40 [2]) [nM] | EC50 (human OX40 [3]) [nM]
1 | mono-mut23-20E5 (Fc fusion) IWELKKDVYVVELDWYPDAPGEMVVLTCDTPEEDGITWTLDQSSEVLGSGKTLTIQVKEFGDAGQYTCHKGGEVLSHSLLLLHKKEDGIWSTDILKDQKEPKNKTFLRCEAKNYSGRFTCWWLTTISTDLTFSVKSSRGSSDPQGVTCGAATLSAERVRGDNKEYEYSVECQEDSACPAAEESLPIEVMVDAVHKLKYENYTSSFFIRDIIKPDPPKNLQLKPLKNSRQVEVSWEYPDTWSTPHSYFSLTFSVQVQGKSKREKKDRVFTDKTSATVICRKNASISVRAQDRYYSSSWSEWASVPCSGGGGSGGGGSGGGGSGGGGSGGGGSRNLPVATPDPGMFPCLHHSQNLLRAVSNMLQKARQTLEFSPCTSEEIDHEDITKDKTSTVEACLPLELTKNESCLNSRETSFITNGSCLASRKTSFMMALCLSSIYEDLKMYQVEFKTMNAKLLMDPKRQIFLDQNMLAVIDELMQALNFNSETVPQKSSLEEPDFYKTAIKLCILLHAFRIRAVTIDRVMSYLNASGGGGSGGGGSEPKSSDKTHTCPPCPAPEFEGGPSVFLFPPKPKDTLMISRTPEVTCVVVDVSHEDPEVKFNWYVDGVEVHNAKTKPREEQYNSTYRVVSVLTVLHQDWLNGKEYKCKVSNKALPASIEKTISKAKGQPREPQVCTLPPSRDELTKNQVSLSCAVKGFYPSDIAVEWESNGQPENNYKTTPPVLDSDGSFFLVSKLTVDKSRWQQGNVFSCSVMHEALHNHYTQKSLSLSPG heavy: QVQLVQSGAEVKKPGASVKVSCKASGYTFTSYVMHWVRQAPGQRLEWIGYINPYNDGTKYNEKFKGRATLTSDKSASTAYMELSSLRSEDTAVYYCANYYGSSLSMDYWGQGTLVTVSSASTKGPSVFPLAPSSKSTSGGTAALGCLVKDYFPEPVTVSWNSGALTSGVHTFPAVLQSSGLYSLSSVVTVPSSSLGTQTYICNVNHKPSNTKVDKKVEPKSCDKTHTCPPCPAPEFEGGPSVFLFPPKPKDTLMISRTPEVTCVVVDVSHEDPEVKFNWYVDGVEVHNAKTKPREEQYNSTYRVVSVLTVLHQDWLNGKEYKCKVSNKALPASIEKTISKAKGQPREPQVYTLPPCRDELTKNQVSLWCLVKGFYPSDIAVEWESNGQPENNYKTTPPVLDSDGSFFLYSKLTVDKSRWQQGNVFSCSVMHEALHNHYTQKSLSLSPG light: not shown | 111 | 92.6 | 59.2 | –
2 | mono-mut23-12H3 (Fc fusion) IWELKKDVYVVELDWYPDAPGEMVVLTCDTPEEDGITWTLDQSSEVLGSGKTLTIQVKEFGDAGQYTCHKGGEVLSHSLLLLHKKEDGIWSTDILKDQKEPKNKTFLRCEAKNYSGRFTCWWLTTISTDLTFSVKSSRGSSDPQGVTCGAATLSAERVRGDNKEYEYSVECQEDSACPAAEESLPIEVMVDAVHKLKYENYTSSFFIRDIIKPDPPKNLQLKPLKNSRQVEVSWEYPDTWSTPHSYFSLTFSVQVQGKSKREKKDRVFTDKTSATVICRKNASISVRAQDRYYSSSWSEWASVPCSGGGGSGGGGSGGGGSGGGGSGGGGSRNLPVATPDPGMFPCLHHSQNLLRAVSNMLQKARQTLEFSPCTSEEIDHEDITKDKTSTVEACLPLELTKNESCLNSRETSFITNGSCLASRKTSFMMALCLSSIYEDLKMYQVEFKTMNAKLLMDPKRQIFLDQNMLAVIDELMQALNFNSETVPQKSSLEEPDFYKTAIKLCILLHAFRIRAVTIDRVMSYLNASGGGGSGGGGSEPKSSDKTHTCPPCPAPEFEGGPSVFLFPPKPKDTLMISRTPEVTCVVVDVSHEDPEVKFNWYVDGVEVHNAKTKPREEQYNSTYRVVSVLTVLHQDWLNGKEYKCKVSNKALPASIEKTISKAKGQPREPQVCTLPPSRDELTKNQVSLSCAVKGFYPSDIAVEWESNGQPENNYKTTPPVLDSDGSFFLVSKLTVDKSRWQQGNVFSCSVMHEALHNHYTQKSLSLSPG heavy: QVQLVQSGAEVKKPGSSVKVSCKASGYTFKDYTMHWVRQAPGQGLEWIGGIYPNNGGSTYNQNFKDRVTLTADKSTSTAYMELSSLRSEDTAVYYCARMGYHGPHLDFDVWGQGTTVTVSSASTKGPSVFPLAPSSKSTSGGTAALGCLVKDYFPEPVTVSWNSGALTSGVHTFPAVLQSSGLYSLSSVVTVPSSSLGTQTYICNVNHKPSNTKVDKKVEPKSCDKTHTCPPCPAPEFEGGPSVFLFPPKPKDTLMISRTPEVTCVVVDVSHEDPEVKFNWYVDGVEVHNAKTKPREEQYNSTYRVVSVLTVLHQDWLNGKEYKCKVSNKALPASIEKTISKAKGQPREPQVYTLPPCRDELTKNQVSLWCLVKGFYPSDIAVEWESNGQPENNYKTTPPVLDSDGSFFLYSKLTVDKSRWQQGNVFSCSVMHEALHNHYTQKSLSLSPG light: DIQMTQSPSSLSASVGDRVTITCKASQDVGAAVAWYQQKPGKAPKLLIYWASTRHTGVPSRFSGSGSGTDFTLTISSLQPEDFATYYCQQYINYPLTFGGGTKVEIKRTVAAPSVFIFPPSDEQLKSGTASVVCLLNNFYPREAKVQWKVDNALQSGNSQESVTEQDSKDSTYSLSSTLTLSKADYEKHKVYACEVTHQGLSSPVTKSFNRGEC | 19.2 | – | 15.6 | –
3 | mono-mut23-12H3_V8 (Fc fusion) IWELKKDVYVVELDWYPDAPGEMVVLTCDTPEEDGITWTLDQSSEVLGSGKTLTIQVKEFGDAGQYTCHKGGEVLSHSLLLLHKKEDGIWSTDILKDQKEPKNKTFLRCEAKNYSGRFTCWWLTTISTDLTFSVKSSRGSSDPQGVTCGAATLSAERVRGDNKEYEYSVECQEDSACPAAEESLPIEVMVDAVHKLKYENYTSSFFIRDIIKPDPPKNLQLKPLKNSRQVEVSWEYPDTWSTPHSYFSLTFSVQVQGKSKREKKDRVFTDKTSATVICRKNASISVRAQDRYYSSSWSEWASVPCSGGGGSGGGGSGGGGSGGGGSGGGGSRNLPVATPDPGMFPCLHHSQNLLRAVSNMLQKARQTLEFSPCTSEEIDHEDITKDKTSTVEACLPLELTKNESCLNSRETSFITNGSCLASRKTSFMMALCLSSIYEDLKMYQVEFKTMNAKLLMDPKRQIFLDQNMLAVIDELMQALNFNSETVPQKSSLEEPDFYKTAIKLCILLHAFRIRAVTIDRVMSYLNASGGGGSGGGGSEPKSSDKTHTCPPCPAPEFEGGPSVFLFPPKPKDTLMISRTPEVTCVVVDVSHEDPEVKFNWYVDGVEVHNAKTKPREEQYNSTYRVVSVLTVLHQDWLNGKEYKCKVSNKALPASIEKTISKAKGQPREPQVCTLPPSRDELTKNQVSLSCAVKGFYPSDIAVEWESNGQPENNYKTTPPVLDSDGSFFLVSKLTVDKSRWQQGNVFSCSVMHEALHNHYTQKSLSLSPG heavy: QVQLVQSGAEVKKPGSSVKVSCKASGYTFKDYTMHWVRQAPGQGLEWIGGIYPNQGGSTYNQNFKDRVTLTADKSTSTAYMELSSLRSEDTAVYYCARIGYHGPHLDFDVWGQGTTVTVSSASTKGPSVFPLAPSSKSTSGGTAALGCLVKDYFPEPVTVSWNSGALTSGVHTFPAVLQSSGLYSLSSVVTVPSSSLGTQTYICNVNHKPSNTKVDKKVEPKSCDKTHTCPPCPAPEFEGGPSVFLFPPKPKDTLMISRTPEVTCVVVDVSHEDPEVKFNWYVDGVEVHNAKTKPREEQYNSTYRVVSVLTVLHQDWLNGKEYKCKVSNKALPASIEKTISKAKGQPREPQVYTLPPCRDELTKNQVSLWCLVKGFYPSDIAVEWESNGQPENNYKTTPPVLDSDGSFFLYSKLTVDKSRWQQGNVFSCSVMHEALHNHYTQKSLSLSPG light: DIQMTQSPSSLSASVGDRVTITCKASQDVGAAVAWYQQKPGKAPKLLIYWASTRHTGVPSRFSGSGSGTDFTLTISSLQPEDFATYYCQQYINYPLTFGGGTKVEIKRTVAAPSVFIFPPSDEQLKSGTASVVCLLNNFYPREAKVQWKVDNALQSGNSQESVTEQDSKDSTYSLSSTLTLSKADYEKHKVYACEVTHQGLSSPVTKSFNRGEC | – | – | – | 1910
4 | mono-mut23-12H3_V3 (Fc fusion) IWELKKDVYVVELDWYPDAPGEMVVLTCDTPEEDGITWTLDQSSEVLGSGKTLTIQVKEFGDAGQYTCHKGGEVLSHSLLLLHKKEDGIWSTDILKDQKEPKNKTFLRCEAKNYSGRFTCWWLTTISTDLTFSVKSSRGSSDPQGVTCGAATLSAERVRGDNKEYEYSVECQEDSACPAAEESLPIEVMVDAVHKLKYENYTSSFFIRDIIKPDPPKNLQLKPLKNSRQVEVSWEYPDTWSTPHSYFSLTFSVQVQGKSKREKKDRVFTDKTSATVICRKNASISVRAQDRYYSSSWSEWASVPCSGGGGSGGGGSGGGGSGGGGSGGGGSRNLPVATPDPGMFPCLHHSQNLLRAVSNMLQKARQTLEFSPCTSEEIDHEDITKDKTSTVEACLPLELTKNESCLNSRETSFITNGSCLASRKTSFMMALCLSSIYEDLKMYQVEFKTMNAKLLMDPKRQIFLDQNMLAVIDELMQALNFNSETVPQKSSLEEPDFYKTAIKLCILLHAFRIRAVTIDRVMSYLNASGGGGSGGGGSEPKSSDKTHTCPPCPAPEFEGGPSVFLFPPKPKDTLMISRTPEVTCVVVDVSHEDPEVKFNWYVDGVEVHNAKTKPREEQYNSTYRVVSVLTVLHQDWLNGKEYKCKVSNKALPASIEKTISKAKGQPREPQVCTLPPSRDELTKNQVSLSCAVKGFYPSDIAVEWESNGQPENNYKTTPPVLDSDGSFFLVSKLTVDKSRWQQGNVFSCSVMHEALHNHYTQKSLSLSPG heavy: QVQLVQSGAEVKKPGSSVKVSCKASGYTFKDYTMHWVRQAPGQGLEWIGGIYPNQGGSTYNQNFKDRVTLTADKSTSTAYMELSSLRSEDTAVYYCARMGYHGPHLDFDVWGQGTTVTVSSASTKGPSVFPLAPSSKSTSGGTAALGCLVKDYFPEPVTVSWNSGALTSGVHTFPAVLQSSGLYSLSSVVTVPSSSLGTQTYICNVNHKPSNTKVDKKVEPKSCDKTHTCPPCPAPEFEGGPSVFLFPPKPKDTLMISRTPEVTCVVVDVSHEDPEVKFNWYVDGVEVHNAKTKPREEQYNSTYRVVSVLTVLHQDWLNGKEYKCKVSNKALPASIEKTISKAKGQPREPQVYTLPPCRDELTKNQVSLWCLVKGFYPSDIAVEWESNGQPENNYKTTPPVLDSDGSFFLYSKLTVDKSRWQQGNVFSCSVMHEALHNHYTQKSLSLSPG light: DIQMTQSPSSLSASVGDRVTITCKASQDVGAAVAWYQQKPGKAPKLLIYWASTRHTGVPSRFSGSGSGTDFTLTISSLQPEDFATYYCQQYINYPLTFGGGTKVEIKRTVAAPSVFIFPPSDEQLKSGTASVVCLLNNFYPREAKVQWKVDNALQSGNSQESVTEQDSKDSTYSLSSTLTLSKADYEKHKVYACEVTHQGLSSPVTKSFNRGEC | – | – | – | 839
